Experimental findings from publication PMC6555819, “Comprehensive study of nuclear receptor DNA binding provides a revised framework for understanding receptor specificity” are described below.

Series [1] addresses PXR:RXRa (Homo sapiens, UniProt O75469;P19793 full;full). As to the kind of experiment: no ligand; PBM; 270 nM : 90 nM RXRa; PBS pH 7.4, 2% milk, 0.02% Triton X-100, 1 mM DTT, BSA, 0.4 mg/ml salmon testes DNA. To be noted: tags: His kept;His cleaved; copies: 1;1; label: surface-attached array probe. The method in brief:
(§1)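 The probes on custom Agilent 4×180K protein-binding microarrays were double-stranded, with 34-nt variable regions bearing direct-repeat seeds, single-nucleotide variants, half-site ablations and random human genomic background sequences. Incubation lasted 1 h with ligand-free nuclear receptor dimers in PBS pH 7.4, 2% milk, 0.02% Triton X-100, 1 mM DTT, 0.2 mg/mL BSA and 0.4 mg/ml salmon testes DNA. Antibodies against each partner (one per run) detected bound dimers, and fluorescence scans were regression-normalized. Binding z-scores take the random background probes as reference.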

Series [2] has as its target LXRb:RXRa (Homo sapiens, UniProt P55055;P19793 full;full). Described as above. To be noted: tags: His kept;His cleaved; copies: 1;1; label: surface-attached array probe. An outline of the steps: as §1
The target in series [3] is VDR:RXRa (Homo sapiens, UniProt P11473;P19793 full;full). The description is as above. To be noted: tags: His kept;His cleaved; copies: 1;1; label: surface-attached array probe. An outline of the steps:
as §1

Series [4] concerns the target FXR:RXRa (Homo sapiens, UniProt Q96RI1;P19793 full;full). Described as above. The note with it: tags: His kept;His cleaved; copies: 1;1; label: surface-attached array probe. The method in brief: as §1
In series [5] the target is RARb:RXRa (Homo sapiens, UniProt P10826;P19793 full;full). The series is described as above. The note with it: tags: His kept;His cleaved; copies: 1;1; label: surface-attached array probe. The method in brief:
as §1

In series [6] the target is RARa:RXRa (Homo sapiens, UniProt P10276;P19793 full;full). Described as above. To be noted: tags: His kept;His cleaved; copies: 1;1; label: surface-attached array probe. The method in brief: as §1
The target of series [7] is LXRa:RXRa (Homo sapiens, UniProt Q13133;P19793 full;full). The series is described as above. To be noted: tags: His kept;His cleaved; copies: 1;1; label: surface-attached array probe. An outline of the steps:
as §1

The target in series [8] is RARg:RXRa (Homo sapiens, UniProt P13631;P19793 full;full). The description is as above. The note with it: tags: His kept;His cleaved; copies: 1;1; label: surface-attached array probe. An outline of the steps:
as §1

Series [9] has as its target THRa:RXRa (Homo sapiens, UniProt P10827;P19793 full;full). Briefly: no ligand; PBM; 90 nM : 90 nM RXRa; PBS pH 7.4, 2% milk, 0.02% Triton X-100, 1 mM DTT, BSA, 0.4 mg/ml salmon testes DNA. To be noted: tags: His kept;His cleaved; copies: 1;1; label: surface-attached array probe.
The target in series [10] is RXRa (Homo sapiens, UniProt P19793). As to the kind of experiment: no ligand; PBM; 180 nM; PBS pH 7.4, 2% milk, 0.02% Triton X-100, 1 mM DTT, BSA, 0.4 mg/ml salmon testes DNA. The note with it: tags: His cleaved; chain copies: 2; label: surface-attached array probe.
Series [11] concerns the target PPARa:RXRa (Homo sapiens, UniProt Q07869;P19793 full;full). As to the kind of experiment: no ligand; PBM; 270 nM : 90 nM RXRa; PBS pH 7.4, 2% milk, 0.02% Triton X-100, 1 mM DTT, BSA, 0.4 mg/ml salmon testes DNA. To be noted: tags: GST kept;His cleaved; copies: 1;1; label: surface-attached array probe. An outline of the steps:
as §1

Chain of VDR:RXRa (P11473 whole entry, chain 1 of 2): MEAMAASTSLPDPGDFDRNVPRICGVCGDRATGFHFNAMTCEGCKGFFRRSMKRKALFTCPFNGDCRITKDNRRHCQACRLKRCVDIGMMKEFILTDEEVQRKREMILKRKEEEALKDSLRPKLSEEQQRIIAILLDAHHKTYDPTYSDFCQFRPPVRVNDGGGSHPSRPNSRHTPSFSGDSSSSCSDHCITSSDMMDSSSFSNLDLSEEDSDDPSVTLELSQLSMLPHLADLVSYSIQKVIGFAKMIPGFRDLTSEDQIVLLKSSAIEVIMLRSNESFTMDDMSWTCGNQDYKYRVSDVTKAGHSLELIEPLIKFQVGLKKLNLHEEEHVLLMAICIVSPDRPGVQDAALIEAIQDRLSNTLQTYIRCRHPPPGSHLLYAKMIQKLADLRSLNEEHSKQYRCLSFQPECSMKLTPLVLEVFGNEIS
Chain of VDR:RXRa (P19793 whole entry, chain 2 of 2): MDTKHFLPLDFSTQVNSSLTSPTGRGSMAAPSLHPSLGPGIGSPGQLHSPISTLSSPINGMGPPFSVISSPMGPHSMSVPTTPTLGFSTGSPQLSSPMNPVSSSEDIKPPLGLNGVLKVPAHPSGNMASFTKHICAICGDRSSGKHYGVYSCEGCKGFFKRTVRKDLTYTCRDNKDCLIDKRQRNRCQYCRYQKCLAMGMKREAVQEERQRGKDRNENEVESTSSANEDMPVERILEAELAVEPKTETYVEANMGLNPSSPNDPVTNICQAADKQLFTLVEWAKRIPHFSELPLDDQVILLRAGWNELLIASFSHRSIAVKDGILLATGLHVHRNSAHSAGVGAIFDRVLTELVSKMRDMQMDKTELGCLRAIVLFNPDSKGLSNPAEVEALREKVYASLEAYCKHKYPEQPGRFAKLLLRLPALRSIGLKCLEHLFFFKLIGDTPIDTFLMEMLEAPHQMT
Chain of THRa:RXRa (P10827 other isoform, or with tags, fused parts or gaps, chain 1 of 2): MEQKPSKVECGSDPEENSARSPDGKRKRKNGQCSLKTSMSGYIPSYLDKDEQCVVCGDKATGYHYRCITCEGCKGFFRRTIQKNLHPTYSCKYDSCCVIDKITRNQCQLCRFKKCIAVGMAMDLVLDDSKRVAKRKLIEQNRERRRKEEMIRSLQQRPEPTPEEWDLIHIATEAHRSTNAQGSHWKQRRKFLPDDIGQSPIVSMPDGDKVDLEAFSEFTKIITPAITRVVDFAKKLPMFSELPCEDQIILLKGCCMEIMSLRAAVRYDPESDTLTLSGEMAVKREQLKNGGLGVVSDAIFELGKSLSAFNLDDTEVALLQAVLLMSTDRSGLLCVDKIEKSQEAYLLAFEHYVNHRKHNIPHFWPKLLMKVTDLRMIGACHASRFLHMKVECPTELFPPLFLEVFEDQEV
Chain of THRa:RXRa (P19793 whole entry, chain 2 of 2): as the sequence (P19793 whole entry, chain 2 of 2) above
Chain of PXR:RXRa (O75469 whole entry, chain 1 of 2): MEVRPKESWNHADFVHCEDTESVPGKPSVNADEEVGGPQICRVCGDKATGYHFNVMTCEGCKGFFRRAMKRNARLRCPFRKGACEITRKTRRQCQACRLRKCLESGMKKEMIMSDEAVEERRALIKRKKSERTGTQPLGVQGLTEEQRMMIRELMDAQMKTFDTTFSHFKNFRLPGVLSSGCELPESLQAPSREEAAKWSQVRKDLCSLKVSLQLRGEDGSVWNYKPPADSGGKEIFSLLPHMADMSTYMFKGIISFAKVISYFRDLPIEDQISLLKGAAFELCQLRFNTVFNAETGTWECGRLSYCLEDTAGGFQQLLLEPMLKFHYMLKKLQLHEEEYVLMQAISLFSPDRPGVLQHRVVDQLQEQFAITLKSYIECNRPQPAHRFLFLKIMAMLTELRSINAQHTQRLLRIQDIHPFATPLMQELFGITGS
Chain of PXR:RXRa (P19793 whole entry, chain 2 of 2): as the sequence (P19793 whole entry, chain 2 of 2) above
Chain of RARb:RXRa (P10826 whole entry, chain 1 of 2): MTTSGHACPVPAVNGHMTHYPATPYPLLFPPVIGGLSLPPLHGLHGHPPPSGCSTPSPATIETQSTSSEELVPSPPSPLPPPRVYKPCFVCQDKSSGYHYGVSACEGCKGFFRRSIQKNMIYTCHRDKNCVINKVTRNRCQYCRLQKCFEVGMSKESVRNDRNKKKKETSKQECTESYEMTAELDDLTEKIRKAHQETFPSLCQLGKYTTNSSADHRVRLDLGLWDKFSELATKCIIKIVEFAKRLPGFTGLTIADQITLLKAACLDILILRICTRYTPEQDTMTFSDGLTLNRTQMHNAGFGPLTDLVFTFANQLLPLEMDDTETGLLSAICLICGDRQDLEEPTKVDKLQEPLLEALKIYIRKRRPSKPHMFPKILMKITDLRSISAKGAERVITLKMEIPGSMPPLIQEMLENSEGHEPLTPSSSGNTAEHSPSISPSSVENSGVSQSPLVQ
Chain of RARb:RXRa (P19793 whole entry, chain 2 of 2): as the sequence (P19793 whole entry, chain 2 of 2) above
Chain of FXR:RXRa (Q96RI1 whole entry, chain 1 of 2): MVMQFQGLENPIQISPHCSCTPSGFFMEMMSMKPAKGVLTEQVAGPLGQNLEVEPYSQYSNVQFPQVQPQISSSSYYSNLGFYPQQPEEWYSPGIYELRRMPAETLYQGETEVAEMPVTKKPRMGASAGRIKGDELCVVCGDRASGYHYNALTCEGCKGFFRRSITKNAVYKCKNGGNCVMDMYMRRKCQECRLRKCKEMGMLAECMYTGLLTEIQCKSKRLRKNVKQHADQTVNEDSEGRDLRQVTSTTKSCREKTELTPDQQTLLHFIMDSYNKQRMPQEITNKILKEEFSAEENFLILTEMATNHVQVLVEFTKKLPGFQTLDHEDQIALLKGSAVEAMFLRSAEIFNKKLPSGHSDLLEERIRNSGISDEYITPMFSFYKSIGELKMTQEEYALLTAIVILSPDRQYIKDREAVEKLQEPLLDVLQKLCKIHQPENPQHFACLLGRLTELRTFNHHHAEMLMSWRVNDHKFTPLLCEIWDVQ
Chain of FXR:RXRa (P19793 whole entry, chain 2 of 2): as the sequence (P19793 whole entry, chain 2 of 2) above

B1: NRC3_wobSeed117_DR4_A23C_o1 (dsDNA)
DNA 1: GCCGTCAAAGTTCAACTAAGGTCACGTAAAGCACGCGCGATTGACAGCGTAGAATGAAGG
DNA 2: CCTTCATTCTACGCTGTCAATCGCGCGTGCTTTACGTGACCTTAGTTGAACTTTGACGGC
As to B1, the binding signal in series [1] was 7.87 PBM z-score against 500 random probes; in series [2] it was 7.09 PBM z-score against 500 random probes; in series [3], 7.49 PBM z-score against 500 random probes; in series [4], 7.83 PBM z-score against 500 random probes; in series [5], 6.07 PBM z-score against 500 random probes; in [6], 7.16 PBM z-score against 500 random probes. In addition, the binding signal in series [7] is 8.08 PBM z-score against 500 random probes; in [8] it was 7.95 PBM z-score against 500 random probes; in series [9], 5.72 PBM z-score against 500 random probes.

B2: NRC3_wobSeed100_DR4_C12T_o1 (dsDNA)
DNA 1: GCCCTACTGGGTCACGAAAGGTCATTGATTCAGTGAGCGATTGACAGCGTAGAATGAAGG
DNA 2: CCTTCATTCTACGCTGTCAATCGCTCACTGAATCAATGACCTTTCGTGACCCAGTAGGGC
As to B2, the binding signal was 7.22 PBM z-score against 500 random probes in series [1]; 6.66 PBM z-score against 500 random probes in series [2]; 5.53 PBM z-score against 500 random probes in [5]; 7.1 PBM z-score against 500 random probes in series [6]; 8.11 PBM z-score against 500 random probes in [7]; 5.47 PBM z-score against 500 random probes in series [9].

B3: NRC3_wobSeed121_DR5_T8A_o1 (dsDNA)
DNA 1: GCCAAACAAGGTCACCGGAAGGTCAAAGTCCGCATGGCGATTGACAGCGTAGAATGAAGG
DNA 2: CCTTCATTCTACGCTGTCAATCGCCATGCGGACTTTGACCTTCCGGTGACCTTGTTTGGC
As to B3, the binding signal was 7.43 PBM z-score against 500 random probes in [1]; 7.08 PBM z-score against 500 random probes in series [2]; 7.25 PBM z-score against 500 random probes in series [3]; 8.52 PBM z-score against 500 random probes in series [4]; 6.21 PBM z-score against 500 random probes in [5]; 8.86 PBM z-score against 500 random probes in [6]. The binding signal was 7.26 PBM z-score against 500 random probes in series [7], 9.36 PBM z-score against 500 random probes in [8], 8.89 PBM z-score against 500 random probes in [10] and 5.05 PBM z-score against 500 random probes in series [9].

B4: NRC3_wobSeed121_DR5_T8G_o1 (dsDNA)
DNA 1: GCCAAACGAGGTCACCGGAAGGTCAAAGTCCGCATGGCGATTGACAGCGTAGAATGAAGG
DNA 2: CCTTCATTCTACGCTGTCAATCGCCATGCGGACTTTGACCTTCCGGTGACCTCGTTTGGC
In the case of B4, the binding signal in series [1] was 7.41 PBM z-score against 500 random probes; in [2], 7.15 PBM z-score against 500 random probes; in [3], 7.56 PBM z-score against 500 random probes; in series [4], 8.64 PBM z-score against 500 random probes; in series [11], 7.14 PBM z-score against 500 random probes; in [5] it was 6.23 PBM z-score against 500 random probes. Besides, the binding signal is 8.77 PBM z-score against 500 random probes in series [6]; 7.39 PBM z-score against 500 random probes in series [7]; 9.6 PBM z-score against 500 random probes in [8]; 9.51 PBM z-score against 500 random probes in series [10]; 5.39 PBM z-score against 500 random probes in [9].

B5: NRC3_wobSeed25_DR1_T8A_o1 (dsDNA)
DNA 1: GCCAAACAAGGTCAAAGGTCAAAGTCGAGCCAACCAGCGATTGACAGCGTAGAATGAAGG
DNA 2: CCTTCATTCTACGCTGTCAATCGCTGGTTGGCTCGACTTTGACCTTTGACCTTGTTTGGC
With B5, the binding signal in series [1] is 7.73 PBM z-score against 500 random probes; in series [2] it was 8.13 PBM z-score against 500 random probes; in series [3], 7.62 PBM z-score against 500 random probes; in [4], 9.54 PBM z-score against 500 random probes; in [5] it was 6.19 PBM z-score against 500 random probes; in series [6], 9.67 PBM z-score against 500 random probes. The binding signal was 8.24 PBM z-score against 500 random probes in [7], 9.65 PBM z-score against 500 random probes in series [8], 11.2 PBM z-score against 500 random probes in series [10] and 5.07 PBM z-score against 500 random probes in [9].

B6: NRC3_wobSeed25_DR1_T8G_o1 (dsDNA)
DNA 1: GCCAAACGAGGTCAAAGGTCAAAGTCGAGCCAACCAGCGATTGACAGCGTAGAATGAAGG
DNA 2: CCTTCATTCTACGCTGTCAATCGCTGGTTGGCTCGACTTTGACCTTTGACCTCGTTTGGC
Take B6: the binding signal in series [1] was 7.89 PBM z-score against 500 random probes; in [2], 8.31 PBM z-score against 500 random probes; in series [3] it was 8.02 PBM z-score against 500 random probes; in series [4], 9.93 PBM z-score against 500 random probes; in [5] it was 6.33 PBM z-score against 500 random probes; in series [6], 9.62 PBM z-score against 500 random probes. For the same molecule, the binding signal is 8.54 PBM z-score against 500 random probes in series [7], 9.68 PBM z-score against 500 random probes in series [8], 11 PBM z-score against 500 random probes in [10] and 5.46 PBM z-score against 500 random probes in series [9].

B7: NRC3_wobSeed73_DR3_T8G_o1 (dsDNA)
DNA 1: GCCAAACGAGGTCACAGAGGTCAAAGTCCGTGCGTAGCGATTGACAGCGTAGAATGAAGG
DNA 2: CCTTCATTCTACGCTGTCAATCGCTACGCACGGACTTTGACCTCTGTGACCTCGTTTGGC
For B7, the binding signal in [1] is 8.14 PBM z-score against 500 random probes; in series [2] it was 7.74 PBM z-score against 500 random probes; in [3], 8.86 PBM z-score against 500 random probes; in [4], 9.18 PBM z-score against 500 random probes; in series [11], 7.16 PBM z-score against 500 random probes; in series [5] it was 5.94 PBM z-score against 500 random probes. The binding signal is 9.08 PBM z-score against 500 random probes in series [6]; 7.82 PBM z-score against 500 random probes in series [7]; 8.72 PBM z-score against 500 random probes in series [8]; 9.83 PBM z-score against 500 random probes in series [10]; 5.25 PBM z-score against 500 random probes in series [9].

B8: NRC3_wobSeed133_DR5_T19G_o1 (dsDNA)
DNA 1: GCCGTCCAAGGTCAATGCGAGGTCAGTGAAAGCATTGCGATTGACAGCGTAGAATGAAGG
DNA 2: CCTTCATTCTACGCTGTCAATCGCAATGCTTTCACTGACCTCGCATTGACCTTGGACGGC
In the case of B8, the binding signal in series [1] is 6.42 PBM z-score against 500 random probes; in series [6] it was 7.03 PBM z-score against 500 random probes; in [8] it was 8.33 PBM z-score against 500 random probes; in [9] it was 5.07 PBM z-score against 500 random probes.

B9: NRC3_wobSeed49_DR2_T8A_o1 (dsDNA)
DNA 1: GCCAAACAAGGTCAAGAGGTCAAAGTCCGCTTCCCGGCGATTGACAGCGTAGAATGAAGG
DNA 2: CCTTCATTCTACGCTGTCAATCGCCGGGAAGCGGACTTTGACCTCTTGACCTTGTTTGGC
Take B9: the binding signal in [1] was 7.38 PBM z-score against 500 random probes; in series [2], 6.73 PBM z-score against 500 random probes; in series [3], 7.22 PBM z-score against 500 random probes; in [4], 8.52 PBM z-score against 500 random probes; in [11] it was 7.02 PBM z-score against 500 random probes; in series [5] it was 6.31 PBM z-score against 500 random probes. For the same molecule, the binding signal is 9.05 PBM z-score against 500 random probes in series [6]; 7.44 PBM z-score against 500 random probes in [7]; 9.11 PBM z-score against 500 random probes in [8]; 9.65 PBM z-score against 500 random probes in [10]; 4.99 PBM z-score against 500 random probes in [9].

B10: NRC3_wobSeed141_DR5_A24C_o1 (dsDNA)
DNA 1: GCAGTCAAAGTTCAGGACGAGGTCACGTAAAGCACGGCGATTGACAGCGTAGAATGAAGG
DNA 2: CCTTCATTCTACGCTGTCAATCGCCGTGCTTTACGTGACCTCGTCCTGAACTTTGACTGC
B10: the binding signal in series [1] is 6.95 PBM z-score against 500 random probes; in series [3], 6.63 PBM z-score against 500 random probes; in series [5] it was 5.48 PBM z-score against 500 random probes; in series [6] it was 7.52 PBM z-score against 500 random probes; in series [8], 8.19 PBM z-score against 500 random probes; in series [9] it was 5.13 PBM z-score against 500 random probes.

B11: NRC3_wobSeed101_DR4_C8G_o1 (dsDNA)
DNA 1: GCCCTTAGGGGTCACTCCAGGTTATAGCATCGGAGTGCGATTGACAGCGTAGAATGAAGG
DNA 2: CCTTCATTCTACGCTGTCAATCGCACTCCGATGCTATAACCTGGAGTGACCCCTAAGGGC
Take B11: the binding signal was 7.15 PBM z-score against 500 random probes in series [1]; 7.21 PBM z-score against 500 random probes in series [2]; 6.64 PBM z-score against 500 random probes in series [3]; 8.32 PBM z-score against 500 random probes in series [4]; 6.76 PBM z-score against 500 random probes in series [11]; 7.45 PBM z-score against 500 random probes in [6]. The binding signal in series [7] is 8.6 PBM z-score against 500 random probes; in series [8], 7.43 PBM z-score against 500 random probes; in series [10], 8.62 PBM z-score against 500 random probes; in series [9], 5.63 PBM z-score against 500 random probes.
